The Human Domainome abundance scans (Beltran et al. 2025)

B1: POU domain, class 2, transcription factor 3, residues 186 to 260; numbered along this chain, Q9UKI9 (parent)
chain: SDLEELEKFAKTFKQRRIKLGFTQGDVGLAMGKLYGNDFSQTTISRFEALNLSFKNMCKLKPLLEKWLNDAESSP
B2: Transitional endoplasmic reticulum ATPase, residues 26 to 106; numbered along this chain, P55072 (parent)
chain: LIVDEAINEDNSVVSLSQPKMDELQLFRGDTVLLKGKKRREAVCIVLSDDTCSDEKIRMNRVVRNNLRVRLGDVISIQPCP

Variants of: B1
Assay: abundance fitness (aPCA) (normalised: wild type 0, dead -1); higher = more abundant; growth selection in yeast, the domain comes from the species named
Settings: Homo sapiens

Abundance fitness of substitutions, site by site:
M31: C -0.583 | R -0.746
Q41: K 0.051 | T -0.04 | C -0.062 | A 0.025 | E 0.026 | W -0.095 | I -0.072 | P -0.03 | S -0.002 | L -0.117 | H -0.001 | G 0.009 | R -0.001 | V -0.081 | Y -0.07 | D -0.066 | M -0.055 | F -0.037
R16: G -0.147
D38: N 0.037
K14: A -0.309
T23: A -0.157 | S 0.026
I18: W -0.31 | L -0.025 | C -0.143 | V -0.023 | A -0.056 | R -0.057 | Y -0.166 | E 0.064 | Q 0.086 | S -0.072 | K -0.028 | T -0.041 | D -0.063 | P -0.964 | N -0.146 | H -0.133 | M 0.004 | F -0.266
A30: G -0.288
N37: I -0.039 | H 0.04 | Y -0.157 | F -0.139 | M -0.025 | T -0.013 | V -0.027 | D 0.023 | R 0.027 | W -0.07 | C -0.027 | E 0.003 | A 0.02 | G 0.024
G28: R -0.191 | Q -0.59 | C -0.367 | A -0.055 | T 0.087
L29: T -0.083 | C 0.026 | W -0.121 | P -0.47 | H -0.062 | G -0.042 | V -0.007 | M 0.05 | Y -0.06 | D -0.045 | F -0.099 | E 0.02 | S -0.003 | A 0.024 | K 0.042 | R 0.019 | Q 0.007 | I 0.022
D26: G -0.125 | V -0.227 | R -0.344
G25: D -0.436 | C 0.105 | V -0.161
T12: Q 0.01 | N 0.063 | R -0.018
S1: F -0.062
K8: G -0.115
A49: K -0.315 | R -0.036 | H 0.014 | S 0.089 | F -0.274 | V 0.011 | L -0.197 | Q 0.133 | P -0.384 | T -0.253 | M -0.201
D2: E 0.015 | N -0.107 | G -0.01
G32: R 0.29
L20: K -0.591
Q15: A 0.474
F47: W -0.27 | S -0.915 | V -0.346 | Y -0.222 | A -0.712 | I -0.433 | K -1.15 | D -0.985 | E -0.942 | P -1.09 | T -0.812 | C -0.845 | L -0.098 | N -0.932 | R -1.08 | Q -1.22 | M -0.279 | G -0.925
E5: S 0.031 | A 0.042 | W -0.137 | R -0.003 | F -0.102 | C -0.005 | H 0.029 | T 0.013 | G -0.045 | N -0.031 | D 0.036 | Q 0.003 | Y -0.269 | M 0.016 | I -0.022
F9: G -0.387 | V -0.441 | L -0.514 | S -0.153
L6: S -0.16 | F -0.229
Q24: C -0.155 | W -0.591 | S -0.071 | A -0.451
Y35: D -0.016 | S 0.01 | F -0.182
G21: S -0.504 | D -0.373 | Q -0.493 | V -0.683
I44: D -1.03 | N -1.1 | L -0.149 | M -0.377 | Q -0.985 | G -1 | V -0.045 | P -0.919 | C -0.538 | A -0.784 | Y -0.569 | E -0.794 | R -0.86 | H -1.02
V27: D -0.727
A10: G -0.064
F22: A 0.146 | R -0.274 | E -0.412 | S -0.282 | L 0.065
K19: S 0.11 | D 0.131 | L 0.228 | A -0.321
L50: Y -0.077 | W -0.105 | C -0.078 | E -0.165 | H 0.142 | S 0.031 | K -0.051 | T -0.003 | N 0.087 | G 0.031 | D -0.204 | M -0.02 | R 0.009 | A 0.017 | Q -0.055
S45: D -0.048 | G -0.036 | H -0.097 | V -0.077 | N 0.004 | M -0.037 | R -0.024 | I -0.125 | K 0.021 | T -0.036 | L -0.125 | F -0.253 | A 0.013 | W -0.138 | C 0.022 | Y -0.099 | P -0.04
G36: C -0.18 | S 0.1
R46: W -0.428 | T -0.181 | Y -0.097 | N 0.011 | Q 0.014 | A 0.015 | E 0.035 | M -0.001 | H -0.038 | K 0.052 | S -0.008 | P -0.986 | D 0.009 | I -0.745 | L -0.05 | V -0.542 | G -0.009
E48: I -1.02 | L -0.836 | F -0.708 | P -0.994 | H -1.19 | G -1.04 | S -0.912 | N -0.871 | D -1.11 | T -1.25 | C -0.871 | K -0.705 | W -1.17 | M -0.798 | Q -1.16 | V -1.04
N51: E -0.078 | L -0.035 | G -0.01 | H 0.107 | I -0.151 | K 0.069 | P -0.844 | D -0.008 | C -0.076 | M -0.022
L3: F -0.055
T42: I 0.135
K33: R 0.129 | W -0.372 | G 0.141

Variants of: B2
Assay: as above
Settings: Homo sapiens

Abundance fitness: each site, then its substitutions
C80: P -0.048 | E -0.095 | H -0.064 | D -0.064 | F -0.067 | K -0.505 | M 0.055 | R -0.066 | Q 0.104 | Y -0.109 | L 0.022 | G 0.056 | W -0.29 | V -0.06 | N 0.141 | I 0.047 | T -0.038
I77: S -0.914 | M -0.097 | W -0.856 | R -0.91 | T -0.672
P81: F -0.195 | T -0.013 | H -0.261 | D 0.058 | C -0.262 | G -0.451 | S -0.106 | N 0.073 | R -0.221 | Y -0.224 | L -0.405 | I -0.174 | A -0.042 | V -0.153
P79: D -0.383 | F -0.012 | K 0.113 | C -0.099 | S -0.016 | I -0.181 | G -0.083 | M -0.076 | E -0.087 | Y -0.208 | A 0.015 | W -0.304 | T -0.11 | R -0.106 | H -0.037 | L -0.044
Q78: H -0.025 | Y 0.024 | P -0.256 | N 0.063 | M -0.089 | D 0.084 | S -0.031 | R -0.071 | C -0.105 | T -0.003 | V 0.039 | G -0.069 | F -0.345 | L -0.01 | I -0.023 | E -0.004
